T1: LAG-3-hFc protein (human LAG-3 extracellular region with hFc tag) (human, UniProt P18627 23-450)
T1 construct: also called hLAG-3-hFc; LAG-3 protein; not shown: human IgG Fc fragment (hFc) of the pCpC vector
T1 sequence: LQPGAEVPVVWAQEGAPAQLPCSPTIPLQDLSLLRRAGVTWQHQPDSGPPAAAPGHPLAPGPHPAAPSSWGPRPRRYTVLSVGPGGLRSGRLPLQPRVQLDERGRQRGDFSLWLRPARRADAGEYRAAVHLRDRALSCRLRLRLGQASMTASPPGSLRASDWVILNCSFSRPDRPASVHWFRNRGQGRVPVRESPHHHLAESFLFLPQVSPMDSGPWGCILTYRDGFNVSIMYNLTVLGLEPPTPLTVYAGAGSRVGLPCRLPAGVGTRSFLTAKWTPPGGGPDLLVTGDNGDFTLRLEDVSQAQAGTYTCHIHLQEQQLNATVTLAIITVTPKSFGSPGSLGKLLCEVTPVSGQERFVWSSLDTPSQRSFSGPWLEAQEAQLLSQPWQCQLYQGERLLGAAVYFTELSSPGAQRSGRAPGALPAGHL


Tests used:
[1] = molecular target: T1, LAG-3-hFc protein (human LAG-3 …); assay: FACS, inhibition of LAG-3-hFc binding to MHC II on Raji cells, antibody 66.667 nM
Method: (§1) The FACS reaction plate incubating the Raji cells was centrifuged to discard the supernatant. The above mixture was added as 100 μl per well to Raji cells and incubated on ice for 1-2 hours. The plate was washed twice with blocking solution (PBS, 2% fetal bovine serum) by centrifugation, added with 100 microliters of fluorescent (Alexa 488)-labeled secondary antibodies per well, and incubated on ice for 1.0 hours. The plate was washed 2-3 times by centrifugation with blocking solution (PBS, 2% fetal bovine serum), added with 100 microliters of PBS per well to suspend cells, and detected using FACS (FACS Calibur, BD) and the results were analyzed. Wherein, the IgG control was murine IgG, and the data in the table is the inhibition rate (%).

[2] = molecular target: T1, LAG-3-hFc protein (human LAG-3 …); assay: FACS, inhibition of LAG-3-hFc binding to MHC II on Raji cells, antibody 0.823 nM
Method: as §1

Binder	Inhibition rate (%) [1] [%]	Inhibition rate (%) [2] [%]
405B8H3 mouse-human chimeric antibody (antibody, V domains shown, also called mAb103-405B8H3) VH: QVQLQQSGAELVRPGASVTLSCKASGYTFTDYEMHWVKQTPVHGLEWIGATDPETGNSAYNQKFKGKAIMTADKSSSTAYMELRSLTSEDSAVYYCISTGWNDWGQGTSLTVSS VL: DIKMTQSPSSMYASLGERVTITCKASQDINSYLSWFQQKPGKSPKTLIYRADRLLDGVPSRFSGSGSGQDYSLTISSLEYGDMGIYYCLQYDEFPYTFGGGTKLEIK	95.8	17.5
409B11E12 mouse-human chimeric antibody (antibody, V domains shown, also called mAb104-409B11E12) VH: QVQLQQSGAELVRPGASVTLSCKASGYTFTDYEMHWVKQTTVHGLEWIGATDPETSYSAYNQKFKGKAILTADKSSSTAYMELRSLTSEDSAVYYCIATGWNDWGQGTSLTVSS VL: DLKMTQSPSSMYASLGERVTITCKASQDINSYLSWFQQKPGKSPKTLIYRANRLLDGVPSRFSGSGSGQDYSLTISSLEYEDMGIYYCLQYDEFPYTFGGGTKLEIK	95.3	24.4
409D4E10 mouse-human chimeric antibody (antibody, V domains shown, also called mAb112-409D4E10) VH: QVQLQQSGAELVRPGASVTLSCKASGNTFTDYEMHWVKQTPVHGLEWIGATDPETDNTAYNQKFKGKAILTTDKSSSTAYMELRSLTSEDSAVYYCITSGWNDWGQGTSLTVSS VL: DIKMTQSPSSMYASLGERVTITCKASQDINSYLSWFQQKPGKSPKTLIYRANRLLDGVPSRFSGSGSGQDYSLTISSLEYEDMGIYYCLQYNEFPYTFGGGTKLEIK	95.9	20.9
